Laboratory results: patent publication US20220040297A1 (Chugai, published 2022)
Residue numbers refer to the chain shown, from its start. Numbers in names are those of the source.

B1: CE115HA000 Y97D one-arm antibody (antibody, human IgG1, kappa, L234A L235A, N297A, name in Kabat numbering)
heavy: QVQLVESGGGVVQPGRSLRLSCAASGFTFSNAWMHWVRQAPGKGLEWVAQIKAKSNNYATYYAESVKGRFTISRDDSKNSLYLQMNSLKTEDTAVYYCRYVHDGAYYGVDAWGQGTTVTVSSASTKGPSVFPLAPSSKSTSGGTAALGCLVKDYFPEPVTVSWNSGALTSGVHTFPAVLQSSGLYSLSSVVTVPSSSLGTQTYICNVNHKPSNTKVDKKVEPKSCDKTHTCPPCPAPEAAGGPSVFLFPPKPKDTLMISRTPEVTCVVVDVSHEDPEVKFNWYVDGVEVHNAKTKPREEQYASTYRVVSVLTVLHQDWLNGKEYKCKVSNKALPAPIEKTISKAKGQPREPQVYTLPPSRCELTKNQVSLSCAVKGFYPSDIAVEWESNGQPENNYKTTPPVLDSDGSFFLVSKLTVDKSRWQQGNVFSCSVMHEALHNHYTQKSLSLSPDYKDDDDK
chain: EPKSSDKTHTCPPCPAPELLGGPSVFLFPPKPKDTLMISRTPEVTCVVVDVSHEDPEVKFNWYVDGVEVHNAKTKPREEQYNSTYRVVSVLTVLHQDWLNGKEYKCKVSNKALPAPIEKTISKAKGQPREPQVCTLPPSRDELTKNQVSLWCLVKGFYPSDIAVEWESNGQPENNYKTTPPVLDSDGSFFLYSKLTVDKSRWQQGNVFSCSVMHEALHNRYTQKSLSLSP
light: DIVMTQSPLSLPVTPGEPASISCRSSQSLVHSNRNTYLHWYQQKPGQAPRLLIYKVSNRFSGVPDRFSGSGSGTDFTLKISRVEAEDVGVYYCGQGTQVPYTFGQGTKLEIKRTVAAPSVFIFPPSDEQLKSGTASVVCLLNNFYPREAKVQWKVDNALQSGNSQESVTEQDSKDSTYSLSSTLTLSKADYEKHKVYACEVTHQGLSSPVTKSFNRGEC
B2: 154R4B07#1 (antibody, human IgG1, kappa, L234A L235A, N297A)
heavy: QVQLVESGGGLVQPGRSLRLSCAASGFTFSNAWMHWVRQAPGKGLEWVAQIKDRGNNYAAYYAESVKGRFTISRDDSKNSIYLQMNSLKTEDTAVYYCRYVHYGSYFFASFYFGVDIWGQGTTVTVSSASTKGPSVFPLAPSSKSTSGGTAALGCLVKDYFPEPVTVSWNSGALTSGVHTFPAVLQSSGLYSLSSVVTVPSSSLGTQTYICNVNHKPSNTKVDKKVEPKSCDKTHTCPPCPAPEAAGGPSVFLFPPKPKDTLMISRTPEVTCVVVDVSHEDPEVKFNWYVDGVEVHNAKTKPREEQYASTYRVVSVLTVLHQDWLNGKEYKCKVSNKALPAPIEKTISKAKGQPREPQVYTLPPSRCELTKNQVSLSCAVKGFYPSDIAVEWESNGQPENNYKTTPPVLDSDGSFFLVSKLTVDKSRWQQGNVFSCSVMHEALHNHYTQKSLSLSPDYKDDDDK
chain: B1 chain
light: B1 light
notes: One-arm antibody
B3: 154R3F02#2 (antibody, human IgG1, kappa, L234A L235A, N297A)
heavy: QVQLVESGGGLVQPGRSLRLSCAASGFTFSNAWMHWVRQAPGKGLEWVAQIKDRASGYNNYYAESVKGRFTISRDDSKNSIYLQMNSLKTEDTAVYYCRYVHYAQSVSAFFQYGVDAWGQGTTVTVSSASTKGPSVFPLAPSSKSTSGGTAALGCLVKDYFPEPVTVSWNSGALTSGVHTFPAVLQSSGLYSLSSVVTVPSSSLGTQTYICNVNHKPSNTKVDKKVEPKSCDKTHTCPPCPAPEAAGGPSVFLFPPKPKDTLMISRTPEVTCVVVDVSHEDPEVKFNWYVDGVEVHNAKTKPREEQYASTYRVVSVLTVLHQDWLNGKEYKCKVSNKALPAPIEKTISKAKGQPREPQVYTLPPSRCELTKNQVSLSCAVKGFYPSDIAVEWESNGQPENNYKTTPPVLDSDGSFFLVSKLTVDKSRWQQGNVFSCSVMHEALHNHYTQKSLSLSPDYKDDDDK
chain: B1 chain
light: B1 light
notes: One-arm antibody
B4: 154R3A01#2 (antibody, human IgG1, kappa, L234A L235A, N297A)
heavy: QVQLVESGGGLVQPGRSLRLSCAASGFTFSNAWMHWVRQAPGKGLEWVAQIKDRVNQYANYYAESVKGRLTISRDDSKNSIYLQMNSLKTEDTAVYYCRYVHYGLTGYFSGQGGVDAWGQGTTVTVSSASTKGPSVFPLAPSSKSTSGGTAALGCLVKDYFPEPVTVSWNSGALTSGVHTFPAVLQSSGLYSLSSVVTVPSSSLGTQTYICNVNHKPSNTKVDKKVEPKSCDKTHTCPPCPAPEAAGGPSVFLFPPKPKDTLMISRTPEVTCVVVDVSHEDPEVKFNWYVDGVEVHNAKTKPREEQYASTYRVVSVLTVLHQDWLNGKEYKCKVSNKALPAPIEKTISKAKGQPREPQVYTLPPSRCELTKNQVSLSCAVKGFYPSDIAVEWESNGQPENNYKTTPPVLDSDGSFFLVSKLTVDKSRWQQGNVFSCSVMHEALHNHYTQKSLSLSPDYKDDDDK
chain: B1 chain
light: B1 light
notes: One-arm antibody
B5: 154R3A01#4 (antibody, human IgG1, kappa, L234A L235A, N297A)
heavy: B4 heavy with S65C, L70F
chain: B1 chain
light: B1 light
notes: One-arm antibody
B6: 154R4B03#4 (antibody, human IgG1, kappa, L234A L235A, N297A)
heavy: QVQLVESGGGLVQPGRSLRLSCAASGFTFSNAWMHWVRQAPGKGLEWVAQIKDKQSQYANYYAPSVKGRFTISRDDSKSSIYLQMNSLKTEDTAVYYCRYVHYQSTSYSFYQGGVDAWGQGTTVTVSSASTKGPSVFPLAPSSKSTSGGTAALGCLVKDYFPEPVTVSWNSGALTSGVHTFPAVLQSSGLYSLSSVVTVPSSSLGTQTYICNVNHKPSNTKVDKKVEPKSCDKTHTCPPCPAPEAAGGPSVFLFPPKPKDTLMISRTPEVTCVVVDVSHEDPEVKFNWYVDGVEVHNAKTKPREEQYASTYRVVSVLTVLHQDWLNGKEYKCKVSNKALPAPIEKTISKAKGQPREPQVYTLPPSRCELTKNQVSLSCAVKGFYPSDIAVEWESNGQPENNYKTTPPVLDSDGSFFLVSKLTVDKSRWQQGNVFSCSVMHEALHNHYTQKSLSLSPDYKDDDDK
chain: B1 chain
light: B1 light
notes: One-arm antibody
B7: 154R4B03#1 (antibody, human IgG1, kappa, L234A L235A, N297A)
heavy: B6 heavy with S79N
chain: B1 chain
light: B1 light
notes: One-arm antibody
B8: 154R3A01#3 (antibody, human IgG1, kappa, L234A L235A, N297A)
heavy: B4 heavy with T28A, L70F
chain: B1 chain
light: B1 light
notes: One-arm antibody
B9: 154R3B01#1 (antibody, human IgG1, kappa, L234A L235A, N297A)
heavy: QVQLVESGGGLVQPGRSLRLSCAASGFTFSSAWMHWVRQAPGKGLEWVAQIKDKQNQYNAYYAESVKGRFTISRDDSKNSIYLQMNSLKTEDTAVYYCRYVHYATSDGFLPYFGVDAWGQGTTVTVSSASTKGPSVFPLAPSSKSTSGGTAALGCLVKDYFPEPVTVSWNSGALTSGVHTFPAVLQSSGLYSLSSVVTVPSSSLGTQTYICNVNHKPSNTKVDKKVEPKSCDKTHTCPPCPAPEAAGGPSVFLFPPKPKDTLMISRTPEVTCVVVDVSHEDPEVKFNWYVDGVEVHNAKTKPREEQYASTYRVVSVLTVLHQDWLNGKEYKCKVSNKALPAPIEKTISKAKGQPREPQVYTLPPSRCELTKNQVSLSCAVKGFYPSDIAVEWESNGQPENNYKTTPPVLDSDGSFFLVSKLTVDKSRWQQGNVFSCSVMHEALHNHYTQKSLSLSPDYKDDDDK
chain: B1 chain
light: B1 light
notes: One-arm antibody
B10: 154R4F08#1 (antibody, human IgG1, kappa, L234A L235A, N297A)
heavy: B2 heavy with R16H
chain: B1 chain
light: B1 light
notes: One-arm antibody
B11: 154R3A01#1 (antibody, human IgG1, kappa, L234A L235A, N297A)
heavy: B4 heavy with L70F
chain: B1 chain
light: B1 light
notes: One-arm antibody

Each binder was assayed against CD3ε homodimer protein (human, UniProt P07766 23-126, limits assumed) (assay: SPR Biacore T200, CD3e homodimer on CM4 chip, antibody as analyte, 25 C).
Sequence of CD3ε homodimer protein (P07766 23-126 limits assumed): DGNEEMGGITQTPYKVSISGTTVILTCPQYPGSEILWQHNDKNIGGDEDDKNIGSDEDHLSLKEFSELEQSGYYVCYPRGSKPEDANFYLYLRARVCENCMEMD
Method: An appropriate amount of CD3ε homodimer protein was immobilized onto Sensor chip CM4 (GE Healthcare Japan Corp.) by the amine coupling method. Then, the antibody having an appropriate concentration was injected thereto as an analyte and allowed to interact with the CD3ε homodimer protein on the sensor chip. Then, the sensor chip was regenerated by the injection of 10 mmol/L glycine-HCl (pH 1.5). The assay was conducted at 25° C., and HBS-EP+ (GE Healthcare Japan Corp.) was used as a running buffer. […] Each parameter was calculated using Biacore T200 Evaluation Software (GE Healthcare Japan Corp.).
Specifically, when the amount of the antibody comprising CE115HA000 bound was defined as X and the amount of the H chain one-amino acid altered form bound was defined as Y, a value of Z (ratio of amounts bound)=Y/X was used.
In the case of B1, the “KD ratio (KD of CE115HA000/KD of altered form)” value is reported as 64.7.

Each binder was assayed against T1, biotin-labeled human CD154 (human, UniProt P29965 113-261, limits assumed, biotin-labeled) (assay: ECL competition: biotinylated CD154, CD3ε homodimer as competitor [1]).
T1 construct: also called biotinylated human CD154
T1 sequence (looked up): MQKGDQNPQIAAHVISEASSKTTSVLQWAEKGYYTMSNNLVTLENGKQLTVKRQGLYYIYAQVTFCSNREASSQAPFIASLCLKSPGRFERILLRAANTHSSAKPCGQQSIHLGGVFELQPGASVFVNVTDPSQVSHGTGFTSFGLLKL
Method: Next, each obtained IgG was evaluated for its binding to CD3 and human CD154 at the same time by the competition method (electrochemiluminescence method (ECL method)).
A TBST solution containing 0.5% BSA (referred to as a blocking solution; the TBST solution was TBS (manufactured by Takara Bio Inc.) supplemented with 0.1% Tween 20) was added at 150 μL/well to streptavidin plate (MSD K.K.), and the plate was incubated at room temperature for 1 hour or longer. After removal of the blocking solution, each well was washed three times with 250 μL of a TBST solution. The antibody-antigen complex solution was added thereto at 50 L/well, and the plate was incubated at room temperature for 1 hour so that the biotinylated antigen-antibody-detection sulfo-tag antibody complex solution bound via the biotinylated antigen to the streptavidin plate. After removal of the antibody-antigen complex solution, each well was washed three times with a TBST solution, and a solution of 4× READ buffer (MSD K.K.) diluted 2-fold with water was added thereto at 150 μL/well, followed by the detection of the luminescence signal of the sulfo-tag using Sector Imager 2400 (MSD K.K.).
For B2, the “Relative ECL reaction (to no antigen coating), CD3ε[+]” value was 1.
With B3 the “Relative ECL reaction (to no antigen coating), CD3ε[+]” value was 16.
B4 was tested, and the “Relative ECL reaction (to no antigen coating), CD3ε[+]” value was 4.
B5 was tested, and the “Relative ECL reaction (to no antigen coating), CD3ε[+]” value was 4.
For B6, the “Relative ECL reaction (to no antigen coating), CD3ε[+]” value was 20.
B7 was tested, and the “Relative ECL reaction (to no antigen coating), CD3ε[+]” value was 18.
In the case of B8, the “Relative ECL reaction (to no antigen coating), CD3ε[+]” value is reported as 19.
For B9, the “Relative ECL reaction (to no antigen coating), CD3ε[+]” value was 18.
For B10, the “Relative ECL reaction (to no antigen coating), CD3ε[+]” value was 1.
B11 was tested, and the “Relative ECL reaction (to no antigen coating), CD3ε[+]” value was 21.
